For test [1], the target named is surface TNF receptors on HT29 cells. Nature of the test: cell-based or functional assay.
The target in test [2] is murine surface LT ligand on PMA-activated TIMI-4 cells (mouse) (UniProt P09225). As to the kind of experiment: FACS on TIMI-4 cells; mAb at 0.1 µg/ml preincubated, washed, then 1 µg/ml mLT-β-R-Fc.
Test [3] shares this target. Nature of the test: FACS on TIMI-4 cells; mAb at 0.3 µg/ml preincubated, washed, then 1 µg/ml mLT-β-R-Fc.
Test [4] shares this target. Nature of the test: FACS on TIMI-4 cells; mAb at 1.0 µg/ml preincubated, washed, then 1 µg/ml mLT-β-R-Fc.
The target is the same in test [5]. As to the kind of experiment: FACS on TIMI-4 cells; mAb at 3.0 µg/ml preincubated, washed, then 1 µg/ml mLT-β-R-Fc.
Test [6] has the same target. Nature of the test: FACS on TIMI-4 cells; mAb at 0.01 µg/ml preincubated, washed, then 1 µg/ml mLT-β-R-Fc.
Test [7] has the same target. As to the kind of experiment: FACS on TIMI-4 cells; mAb at 0.03 µg/ml preincubated, washed, then 1 µg/ml mLT-β-R-Fc.
For test [8] the target is unchanged. As to the kind of experiment: FACS on TIMI-4 cells; mAb at 10.0 µg/ml preincubated, washed, then 1 µg/ml mLT-β-R-Fc.
For test [9] the target is unchanged. Nature of the test: FACS on TIMI-4 cells; mAb at 30.0 µg/ml preincubated, washed, then 1 µg/ml mLT-β-R-Fc.
Test [10] shares this target. As to the kind of experiment: FACS on TIMI-4 cells; mAb at 100.0 µg/ml preincubated, washed, then 1 µg/ml mLT-β-R-Fc.

murine surface LT ligand on PMA-activated TIMI-4 cells (mouse), sequence (P09225 34-202, chain 1 of 2): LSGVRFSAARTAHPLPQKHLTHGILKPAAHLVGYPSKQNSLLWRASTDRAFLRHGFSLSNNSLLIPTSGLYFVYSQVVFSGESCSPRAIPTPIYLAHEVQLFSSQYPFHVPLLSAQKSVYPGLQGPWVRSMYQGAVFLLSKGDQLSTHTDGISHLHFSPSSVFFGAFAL
murine surface LT ligand on PMA-activated TIMI-4 cells (mouse), sequence (P41155 whole entry, chain 2 of 2, further chain): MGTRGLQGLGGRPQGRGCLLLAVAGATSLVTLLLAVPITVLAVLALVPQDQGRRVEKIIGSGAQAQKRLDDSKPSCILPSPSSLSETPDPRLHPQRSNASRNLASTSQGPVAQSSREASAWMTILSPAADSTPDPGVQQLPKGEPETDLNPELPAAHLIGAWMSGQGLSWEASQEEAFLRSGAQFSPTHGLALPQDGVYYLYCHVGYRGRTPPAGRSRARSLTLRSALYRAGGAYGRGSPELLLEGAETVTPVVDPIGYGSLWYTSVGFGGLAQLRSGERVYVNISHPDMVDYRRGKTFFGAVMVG
hTNF, sequence (P01375 77-233 limits assumed): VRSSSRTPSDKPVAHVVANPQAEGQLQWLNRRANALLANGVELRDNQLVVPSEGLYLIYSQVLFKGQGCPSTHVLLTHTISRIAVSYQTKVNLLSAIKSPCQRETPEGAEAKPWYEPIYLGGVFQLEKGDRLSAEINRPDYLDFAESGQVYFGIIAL

Regarding “hLT-α (from UniProt P01374 35-205) (ligand)”, the Concentration of Cytotoxic Agent (ng/ml) Resulting in 50% Growth Inhibition of HT29 cells, in the presence of 5 µg/ml hu-IgG control in test [1] came out at 3 ng/mL.
As for “hTNF (from UniProt P01375 77-233) (ligand)”, the Concentration of Cytotoxic Agent (ng/ml) Resulting in 50% Growth Inhibition of HT29 cells, in the presence of 5 µg/ml hu-IgG control in test [1] worked out at 0.08 ng/mL.
Turning to hamster anti-mLT-α mAb AF.B3 (antibody), the % Inh (Percent Inhibition) of mLT-β-R-Fc binding worked out at 0% in [2]; 2% in test [3]; 0% in [4]; 0% in test [5]; 2% in test [6]; 0% in test [7]. The % Inh (Percent Inhibition) of mLT-β-R-Fc binding in test [8], in test [9] and in [10] was 0% each time. In addition, the MFCI (Mean Fluorescence Channel No.) of bound mLT-β-R-Fc in [2] amounted to 86 channel no; in test [3] it was 84 channel no; in [4], 89 channel no; in test [5] it was 88 channel no; in [6], 84 channel no; in test [7], 86 channel no. In addition, the MFCI (Mean Fluorescence Channel No.) of bound mLT-β-R-Fc is 95 channel no in [8], 94 channel no in test [9] and 92 channel no in test [10].
Consider “hamster anti-mouse LT-α/β mAb BB.F6 (antibody)”, for which the % Inh (Percent Inhibition) of mLT-β-R-Fc binding is 44% in test [2]; 62% in test [3]; 71% in test [4]; 86% in [5]; 18% in [6]; 23% in [7]. Moreover, the % Inh (Percent Inhibition) of mLT-β-R-Fc binding was determined as 94% in [8], 95% in test [9] and 98% in test [10]. The MFCI (Mean Fluorescence Channel No.) of bound mLT-β-R-Fc came out at 51 channel no in [2]; 36 channel no in test [3]; 29 channel no in [4]; 17 channel no in test [5]; 71 channel no in test [6]; 67 channel no in test [7]. The MFCI (Mean Fluorescence Channel No.) of bound mLT-β-R-Fc stood at 11 channel no in [8], 10 channel no in test [9] and 8 channel no in [10].
